Assay results reported in article PMC8015186.

Key:
[1] = target: TraWF in the BACTH-TM vectors (E. coli (F-plasmid)) (UniProt P18472); assay: two-hybrid
[2] = target: TraBN with T18 or T25 at its N-terminus (BACTH) (Neisseria gonorrhoeae MS11) (UniProt Q5EPB9); assay: two-hybrid

Substance	β-galactosidase signal over background (times above the background level) [1]	β-galactosidase signal over background (times above the background level) [2]
TraVF in the BACTH-TM vectors (from UniProt P41069 19-171) (natural protein)	8	
TrbCN in the BACTH-TM vectors (natural protein)		4
